Experimental data: article PMC12633535 (bioRxiv, 2025)
Numbering of substitutions follows the chain as printed.

Columns and labels:
Experiment in all cases: BLI
[1] = target: T1, full-length β-catenin, untagged, wild type (human, UniProt P35222 1-781)
T1 sequence (looked up): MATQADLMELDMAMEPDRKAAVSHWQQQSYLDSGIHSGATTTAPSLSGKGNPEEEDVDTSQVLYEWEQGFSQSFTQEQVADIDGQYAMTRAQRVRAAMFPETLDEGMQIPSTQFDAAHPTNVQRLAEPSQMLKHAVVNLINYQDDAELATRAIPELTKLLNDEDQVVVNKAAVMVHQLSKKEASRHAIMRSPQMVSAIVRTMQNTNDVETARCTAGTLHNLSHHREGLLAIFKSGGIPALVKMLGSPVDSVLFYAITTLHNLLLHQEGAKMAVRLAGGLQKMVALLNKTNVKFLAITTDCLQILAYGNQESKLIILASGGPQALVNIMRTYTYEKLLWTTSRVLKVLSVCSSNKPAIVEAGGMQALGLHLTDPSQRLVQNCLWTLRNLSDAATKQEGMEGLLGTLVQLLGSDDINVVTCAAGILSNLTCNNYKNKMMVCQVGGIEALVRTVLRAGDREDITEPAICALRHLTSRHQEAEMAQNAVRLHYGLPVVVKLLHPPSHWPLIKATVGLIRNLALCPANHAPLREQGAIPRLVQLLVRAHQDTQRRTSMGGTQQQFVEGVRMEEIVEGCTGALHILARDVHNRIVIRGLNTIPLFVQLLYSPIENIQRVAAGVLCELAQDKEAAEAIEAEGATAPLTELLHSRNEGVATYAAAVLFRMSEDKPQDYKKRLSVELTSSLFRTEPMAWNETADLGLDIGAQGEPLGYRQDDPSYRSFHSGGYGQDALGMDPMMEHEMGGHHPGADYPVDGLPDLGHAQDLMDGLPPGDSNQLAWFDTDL

[2] = target: T2, full-length β-catenin E462K, untagged (human, UniProt P35222 1-781, E462K)
T2 sequence (looked up): T1 sequence (looked up) with E462K

[3] = target: T3, β-catenin C619Y/E620K (purified, full length, untagged) (human, UniProt P35222 1-781, C619Y | E620K)
T3 sequence (looked up): T1 sequence (looked up) with C619Y, E620K

- binding result [1]: binds
- binding result [2]: binds
- binding result [3]: binds
B1: GST-tagged TCF4 fragment (a.a. 1–53) (domain or fragment, UniProt Q9NQB0 1-53, looked up)
chain: MPQLNGGGGDDLGANDELISFKDEGEQEEKSSENSSAERDLADVKSSLVNESE
